The source of these data is PMC2156102.

Test [1] concerns the target LexABD-Rac1G12V (fusion of the LexA DNA binding domain with Drosophila Rac1 G12V) (Drosophila) (UniProt P40792). Put plainly: two-hybrid; same fusions; quantification of ß-galactosidase activity in liquid assays on total protein extracts, three measurements.
In test [2] the target is LexABD-Rac1G12V (fusion of the LexA DNA binding domain with Drosophila Rac1 G12V) (UniProt P40792). Put plainly: yeast two-hybrid, ß-galactosidase activity in total protein extracts. The settings on record: parent: est. 6.4; read off a plot.

As for “GAL4AD-LbGAP (fusion of the GAL4 activation domain with LbGAP) (natural protein)”, the ß-galactosidase activity relative to that of LbGAP with Rac2G12V in test [1] amounted to 2 fold.
Take “GAL4AD-LbGAP (fusion of the GAL4 activation domain with LbGAP) K111A”: the response (ß-Galactosidase units) in test [2] was determined as 0.38.
On the same count and under the same terms, next, “GAL4AD-LbGAP (fusion of the GAL4 activation domain with LbGAP) R115A”: 0.34.
“LbGAPR74A (GAL4 activation domain fusion) (natural protein)” yielded a fold lower interaction (ß-galactosidase activity) than wild-type LbGAP in test [1] of 3 fold.
Still for that read-out and setting: to “LbGAPS190A (GAL4 activation domain fusion) (natural protein)” belongs 3 fold.
